Here are results for 13 molecules from US20240390531A1 (IMAGINAB, published 2024).

One may read the Kd as the equilibrium constant for the complex coming apart.

In assay [1] the target is T1, purified human FAP antigen (human, UniProt Q12884 26-760, limits assumed). The assay can be described thus: ELISA, plate coated with purified human FAP antigen (FIG. 56F-56G). Here is the method:
(§1) Binding kinetics of the novel antigen binding constructs to a purified human FAP antigen was assessed using ELISA. For this assay, a 96 well ELISA plate was coated with the human-FAP antigen diluted to a concentration of 2 mg/mL in coating buffer (0.05M sodium carbonate-bicarbonate buffer, pH 9.6). 100 μl of this coating solution was added to each well in the plate and incubate at 4° C. overnight. The plate was washed 3 times with 300 μl per well of washing buffer (PBS with 0.05% Tween-20). After the last wash, the plate was blocked by adding to each well 200 μl of blocking buffer (PBS with 1% BSA) warmed to room temperature. The plate was then incubated at room temperature for 1 hour under gentle agitation. After blocking, the plate was washed 3 times with 300 μl per well of washing buffer. Dilution samples for each minibody were created by making 2.5× dilutions from a starting sample at 100 ng/mL, or 250 ng/mL, or 1000 ng/mL or 3000 ng/mL in 100 μL sample buffer (PBS with 1% BSA). The dilution samples were transferred to the assay plate and incubated at room temperature for 1 hour under gentle agitation. The plate was then washed 3 times with 300 μl per well of washing buffer.
(§2) Detection was performed by adding 100 μl of HRP labeled detection secondary antibody at an appropriate dilution and incubating the plate at room temperature for 1 hour under gentle agitation. The plate was then washed 3 times with 300 μl per well of washing buffer. For color development, 100 μl of TMB substrate regent, pre-warmed to room temperature, was added to the plate and incubated in the dark at room temperature for 15 min. The reaction was then stopped by adding 100 μl of 650 nm stop solution to the plate and mixed for 1 min at room temperature under gentle agitation. The plate is recorded by reading OD at 650 nm in a plate reader within 20 min after terminating the reaction.
(ELISA stands for enzyme-linked immunosorbent assay.)

Assay [2] deals with T1, purified human FAP antigen. In words: ELISA, plate coated with purified human FAP antigen (FIG. 56A-56C). Here is the method: as §1, §2
A further assay deals with T2, human FAP on cells (human, UniProt Q12884 1-760).
T2 construct: whole, on cells; The cell line is named under assay; also called HT1080 human FAP cells; HT1080-hFAP cells
In words: flow cytometry on U87-MG glioblastoma cells (FIG. 58B). Here is the method:
As disclosed herein, the binding of constructs to cellular targets was assessed using flow cytometry. Stock of 2.5× serial dilution of minibodies were created starting from a concentration of 100 nM in […] FACS buffer (PBS 2% FBS). Cells were added to a Corning V-bottom polypropylene cell culture plate at 200,000 cells/well. The cells were centrifuged at 100 rpm for 3 minutes and the supernatant discarded. The minibody dilution series were transferred to the plate containing cell pellets and incubated for 1 hr at 4° C. The plate was then washed 3 times with FACS buffer at 200 µl/well, discarding supernatant after each wash by centrifugation at 1000 rpm. 50 µl/well of detection antibody R&D AlexaFluor-647 Goat anti Human (H+L) was added at a 1:100 dilution in FACS buffer and incubated at 4° C. 1 hr. The plate was washed 3 times with FACS buffer at 200 µl/well, discarding supernatant after each wash by centrifuging at 1000 rpm. Cells were then fixed by adding 100 µl of 1% paraformaldehyde in PBS and incubating at room temperature for 15 minutes. 100 µl of PBS were added to each well and the plate was analyzed by flow cytometry using the allophycocyanin fluorescence setting.
For orientation: A flow cytometer gives signals particle by particle.

B1: IAB16C2-25 (other)
chain: EVQLLESGGGLVQPGGSLRLSCAASGFTFSSHAMSWVRQAPGKGLEWVSAIWASGEQYYADSVKGRFTISRDNSKNTLYLQMNSLRAEDTAVYYCAKGWLGNFDYWGQGTLVTVSSSGGGGEIVLTQSPGTLSLSPGERATLSCRASQSVSRSYLAWYQQKPGQAPRLLIIGASTRATGIPDRFSGSGSGTDFTLTISRLEPEDFAVYYCQQGQVIPPTFGQGTKVEIKGGCPPCPPC
Turning to B1, the Kd in assay [1] was ~1 nM.

B2: IAB16C2-18 (other)
chain: EVQLLESGGGLVQPGGSLRLSCAASGFTFSSYAMSWVRQAPGKGLEWVSAIIGSGASTYYADSVKGRFTISRDNSKNTLYLQMNSLRAEDTAVYYCAKGWFGGFNYWGQGTLVTVSSSGGGGEIVLTQSPGTLSLSPGERATLSCRASQSVTSSYLAWYQQKPGQAPRLLINVGSRRATGIPDRFSGSGSGTDFTLTISRLEPEDFAVYYCQQGIMLPPTFGQGTKVEIKGGCPPCPPC
On to B2, for which the equilibrium dissociation constant (Kd) in assay [1] is ~1 nM.

B3: IAB16C2-16 (other)
chain: QVQLVQSGAEVKKPGASVKVSCKTSRYTFTEYTIHWVRQAPGQRLEWIGGINPNNGIPNYNQKFKGRVTITVDTSASTAYMELSSLRSEDTAVYYCARRRIAYGYDEGHAMDYWGQGTLVTVSSSGGGGDIVMTQSPDSLAVSLGERATINCKSSQSLLYSRNQKNYLAWYQQKPGQPPKLLIFWASTRESGVPDRFSGSGFGTDFTLTISSLQAEDVAVYYCQQYFSYPLTFGQGTKVEIKGGCPPCPPC
With B3, the Kd in assay [1] is ~1 nM.

B4: IAB16M2-31 (other)
chain: QVQLVQSGAEVKKPGASVKVSCKASGYTFTEYTIHWVRQAPGQRLEWIGGINPNNGIPNYNQKFKGRVTITVDTSASTAYMELSSLRSEDTAVYYCARRRIAYGYDEGHAMDYWGQGTLVTVSSGSTSGGGSGGGSGGGGSSDIVMTQSPDSLAVSLGERATINCKSSQSLLYSRNQKNYLAWYQQKPGQPPKLLIFWASTRESGVPDRFSGSGSGTDFTLTISSLQAEDFAVYYCQQYYSYPLTFGQGTKVEIKEPKSSDKTHTCPPCPPCGGGSSGGGSGGQPREPQVYTLPPSREEMTKNQVSLTCLVKGFYPSDIAVEWESNGQPENNYKTTPPVLDSDGSFFLYSKLTVDKSRWQQGNVFSCSVMHEALHNHYTQKSLSLSPG
In the case of B4, in assay [2], the Kd is ~0.1 nM.

B5: IAB16M2-33 (other)
chain: QVQLVQSGAEVKKPGASVKVSCKTSRYTFTEYTIHWVRQAPGQRLEWIGGINPNNGIPNYNQKFKGRVTITVDTSASTAYMELSSLRSEDTAVYYCARRRIAYGYDEGHAMDYWGQGTLVTVSSGSTSGGGSGGGSGGGGSSDIVMTQSPDSLAVSLGERATINCKSSQSLLYSRNQKNYLAWYQQKPGQPPKLLIFWASTRESGVPDRFSGSGFGTDFTLTISRLEPEDFAVYYCQQYFSYPLTFGQGTKVEIKEPKSSDKTHTCPPCPPCGGGSSGGGSGGQPREPQVYTLPPSREEMTKNQVSLTCLVKGFYPSDIAVEWESNGQPENNYKTTPPVLDSDGSFFLYSKLTVDKSRWQQGNVFSCSVMHEALHNHYTQKSLSLSPG
Take B5: the dissociation constant Kd in assay [2] was ~0.1 nM.

B6: IAB16M1-30 (other)
chain: DIVMTQSPDSLAVSLGERATINCKSSQSLLYSRNQKNYLAWYQQKPGQPPKLLIFWASTRESGVPDRFSGSGSGTDFTLTISSLQAEDFAVYYCQQYYSYPLTFGQGTKVEIKGSTSGGGSGGGSGGGGSSQVQLVQSGAEVKKPGASVKVSCKASGYTFTEYTIHWVRQAPGQRLEWIGGINPNNGIPNYNQKFKGRVTITVDTSASTAYMELSSLRSEDTAVYYCARRRIAYGYDEGHAMDYWGQGTLVTVSSEPKSSDKTHTCPPCPPCGGGSSGGGSGGQPREPQVYTLPPSREEMTKNQVSLTCLVKGFYPSDIAVEWESNGQPENNYKTTPPVLDSDGSFFLYSKLTVDKSRWQQGNVFSCSVMHEALHNHYTQKSLSLSPG
Take B6: the dissociation constant Kd in assay [2] was ~0.1 nM.

B7: IAB16M1-36 (other)
chain: DIVMTQSPDSLAVSLGERATINCKSSQSLLYSRNQKNYLAWYQQKPGQPPKLLIFWASTRESGVPDRFSGSGSGTDFTLTISRLEPEDFAVYYCQQYYSYPLTFGQGTKVEIKGSTSGGGSGGGSGGGGSSQVQLVQSGAEVKKPGASVKVSCKASGYTFTEYTIHWVRQAPGQRLEWIGGINPNNGIPNYNQKFKGRVTITVDTSASTAYMELSSLRSEDTAVYYCARRRIAYGYDEGHAMDYWGQGTLVTVSSEPKSSDKTHTCPPCPPCGGGSSGGGSGGQPREPQVYTLPPSREEMTKNQVSLTCLVKGFYPSDIAVEWESNGQPENNYKTTPPVLDSDGSFFLYSKLTVDKSRWQQGNVFSCSVMHEALHNHYTQKSLSLSPG
Turning to B7, the dissociation constant Kd in assay [2] was ~0.1 nM.

B8: IAB16M1-32 (other)
chain: DIVMTQSPDSLAVSLGERATINCKSSQSLLYSRNQKNYLAWYQQKPGQPPKLLIFWASTRESGVPDRFSGSGFGTDFTLTISRLEPEDFAVYYCQQYFSYPLTFGQGTKVEIKGSTSGGGSGGGSGGGGSSQVQLVQSGAEVKKPGASVKVSCKTSRYTFTEYTIHWVRQAPGQRLEWIGGINPNNGIPNYNQKFKGRVTITVDTSASTAYMELSSLRSEDTAVYYCARRRIAYGYDEGHAMDYWGQGTLVTVSSEPKSSDKTHTCPPCPPCGGGSSGGGSGGQPREPQVYTLPPSREEMTKNQVSLTCLVKGFYPSDIAVEWESNGQPENNYKTTPPVLDSDGSFFLYSKLTVDKSRWQQGNVFSCSVMHEALHNHYTQKSLSLSPG
For B8, in assay [2], the dissociation constant Kd was ~0.1 nM.

B9: IAB16C1-24 (other)
chain: EIVLTQSPGTLSLSPGERATLSCRASQSVSRSYLAWYQQKPGQAPRLLIIGASTRATGIPDRFSGSGSGTDFTLTISRLEPEDFAVYYCQQGQVIPPTFGQGTKVEIKSGGGGEVQLLESGGGLVQPGGSLRLSCAASGFTFSSHAMSWVRQAPGKGLEWVSAIWASGEQYYADSVKGRFTISRDNSKNTLYLQMNSLRAEDTAVYYCAKGWLGNFDYWGQGTLVTVSSGGCPPCPPC
Take B9: in assay [1], the Kd was ~1 nM.

B10: IAB16C4-17 (other)
chain: QVQLVQSGAEVKKPGASVKVSCKTSRYTFTEYTIHWVRQAPGQRLEWIGGINPNNGIPNYNQKFKGRVTITVDTSASTAYMELSSLRSEDTAVYYCARRRIAYGYDEGHAMDYWGQGTLVTVSSGGGSGGGGDIVMTQSPDSLAVSLGERATINCKSSQSLLYSRNQKNYLAWYQQKPGQPPKLLIFWASTRESGVPDRFSGSGFGTDFTLTISSLQAEDVAVYYCQQYFSYPLTFGQGTKVEIKGGCPPCPPC
For the molecule B10, the Kd in assay [1] was ~1 nM.

B11: IAB16C4-19 (other)
chain: EVQLLESGGGLVQPGGSLRLSCAASGFTFSSYAMSWVRQAPGKGLEWVSAIIGSGASTYYADSVKGRFTISRDNSKNTLYLQMNSLRAEDTAVYYCAKGWFGGFNYWGQGTLVTVSSGGGSGGGGEIVLTQSPGTLSLSPGERATLSCRASQSVTSSYLAWYQQKPGQAPRLLINVGSRRATGIPDRFSGSGSGTDFTLTISRLEPEDFAVYYCQQGIMLPPTFGQGTKVEIKGGCPPCPPC
notes: also called IAB164-19
For B11, the Kd in assay [1] is ~1 nM.

B12: IAB16C4-27 (other)
chain: EVQLLESGGGLVQPGGSLRLSCAASGFTFSSHAMSWVRQAPGKGLEWVSAIWASGEQYYADSVKGRFTISRDNSKNTLYLQMNSLRAEDTAVYYCAKGWLGNFDYWGQGTLVTVSSGGGSGGGGEIVLTQSPGTLSLSPGERATLSCRASQSVSRSYLAWYQQKPGQAPRLLIIGASTRATGIPDRFSGSGSGTDFTLTISRLEPEDFAVYYCQQGQVIPPTFGQGTKVEIKGGCPPCPPC
As to B12, in assay [1], the dissociation constant (Kd) was ~1 nM.

B13: IAB16M1-10 (other)
chain: EIVLTQSPGTLSLSPGERATLSCRASQSVSRSYLAWYQQKPGQAPRLLIIGASTRATGIPDRFSGSGSGTDFTLTISRLEPEDFAVYYCQQGQVIPPTFGQGTKVEIKGSTSGGGSGGGSGGGGSSEVQLLESGGGLVQPGGSLRLSCAASGFTFSSHAMSWVRQAPGKGLEWVSAIWASGEQYYADSVKGRFTISRDNSKNTLYLQMNSLRAEDTAVYYCAKGWLGNFDYWGQGTLVTVSSEPKSSDKTHTCPPCPPCGGGSSGGGSGGQPREPQVYTLPPSREEMTKNQVSLTCLVKGFYPSDIAVEWESNGQPENNYKTTPPVLDSDGSFFLYSKLTVDKSRWQQGNVFSCSVMHEALHNHYTQKSLSLSPG
As to B13, the Kd (in assay [2]; in the assay with human FAP on cells) was ~0.1 nM each time.
